Columns and labels:
fibrin monomer = fibrin monomer (UniProt P02675); assay: ELISA
[1] = molecular target: recombinant von Willebrand factor (VWF) A2 domain polypeptide, A2_(1481-1668) (human) (UniProt P04275); assay: ELISA
Sequence of recombinant von Willebrand factor (VWF) A2 domain polypeptide, A2_(1481-1668) (human) (P04275 1481-1668): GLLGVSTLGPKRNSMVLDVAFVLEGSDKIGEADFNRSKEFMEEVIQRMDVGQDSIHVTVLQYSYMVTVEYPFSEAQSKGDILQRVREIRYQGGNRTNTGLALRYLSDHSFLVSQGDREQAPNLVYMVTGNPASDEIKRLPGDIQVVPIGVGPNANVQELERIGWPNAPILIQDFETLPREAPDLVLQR

Sequence of recombinant von Willebrand factor (VWF) A2 domain polypeptide, A2_(1481-1668) (P04275 1481-1668): as above

EC50 (fibrin monomer)	EC50 [1]	Substance
0.06 µM	–	recombinant von Willebrand factor (VWF) A2 domain polypeptide, A2_(1481-1668) (from UniProt P04275 1481-1668) (domain or fragment)
–	0.007 µM	fibrin monomer (from UniProt P02675 45-491; P02679 27-453) (complex)

Reference: PMC5270629
